# Where two headings read alike, the source gives them in different places. Where no end group is shown, it is not given here. fluorescein = fluorescein label
# T1: Pct1 (Schizosaccharomyces pombe, UniProt Q9P6Q6)
# T1 sequence (Q9P6Q6 1-303): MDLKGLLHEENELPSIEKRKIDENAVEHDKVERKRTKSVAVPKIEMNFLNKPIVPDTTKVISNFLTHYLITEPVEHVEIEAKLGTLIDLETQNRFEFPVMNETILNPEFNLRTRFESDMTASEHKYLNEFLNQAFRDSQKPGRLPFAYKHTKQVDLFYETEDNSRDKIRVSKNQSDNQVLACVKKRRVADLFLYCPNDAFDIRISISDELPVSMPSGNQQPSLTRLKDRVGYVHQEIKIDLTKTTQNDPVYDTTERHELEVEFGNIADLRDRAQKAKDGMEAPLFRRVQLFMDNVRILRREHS
# T2: S. pombe RNA triphosphatase Pct1 (wild type) (S. pombe, UniProt Q9P6Q6 1-303)
# T2 sequence (looked up): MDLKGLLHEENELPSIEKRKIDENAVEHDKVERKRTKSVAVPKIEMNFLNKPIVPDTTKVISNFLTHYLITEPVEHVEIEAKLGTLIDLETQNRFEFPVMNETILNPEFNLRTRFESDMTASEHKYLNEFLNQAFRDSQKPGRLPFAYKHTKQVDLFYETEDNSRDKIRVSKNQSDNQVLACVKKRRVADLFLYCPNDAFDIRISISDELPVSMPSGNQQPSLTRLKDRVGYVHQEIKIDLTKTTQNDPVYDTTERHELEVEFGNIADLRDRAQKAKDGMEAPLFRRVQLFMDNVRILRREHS
# T3: S. pombe RNA triphosphatase Pct1 M100A (S. pombe, UniProt Q9P6Q6 1-303, M100A)
# T3 sequence (looked up): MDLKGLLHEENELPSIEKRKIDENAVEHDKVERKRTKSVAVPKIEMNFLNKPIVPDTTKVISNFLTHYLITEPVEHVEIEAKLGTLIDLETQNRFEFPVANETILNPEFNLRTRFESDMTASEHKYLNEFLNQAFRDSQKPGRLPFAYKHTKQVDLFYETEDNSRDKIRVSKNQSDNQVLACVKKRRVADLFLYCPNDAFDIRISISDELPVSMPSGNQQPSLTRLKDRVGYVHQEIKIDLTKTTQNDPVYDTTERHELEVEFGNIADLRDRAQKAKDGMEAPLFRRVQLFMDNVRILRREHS
# T4: S. pombe RNA triphosphatase Pct1 M100R (S. pombe, UniProt Q9P6Q6 1-303, M100R)
# T4 sequence (looked up): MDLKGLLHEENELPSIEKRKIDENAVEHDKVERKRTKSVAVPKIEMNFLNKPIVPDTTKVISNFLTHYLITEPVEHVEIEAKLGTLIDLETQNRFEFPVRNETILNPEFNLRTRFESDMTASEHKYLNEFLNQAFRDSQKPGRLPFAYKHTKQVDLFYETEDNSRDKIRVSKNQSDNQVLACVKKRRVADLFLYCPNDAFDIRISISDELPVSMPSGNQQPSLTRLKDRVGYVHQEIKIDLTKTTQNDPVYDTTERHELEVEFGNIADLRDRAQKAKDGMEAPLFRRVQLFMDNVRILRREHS
# T5: Pct1 M100A (Schizosaccharomyces pombe, UniProt Q9P6Q6, M100A)
# T5 sequence (Q9P6Q6 1-303 M100A): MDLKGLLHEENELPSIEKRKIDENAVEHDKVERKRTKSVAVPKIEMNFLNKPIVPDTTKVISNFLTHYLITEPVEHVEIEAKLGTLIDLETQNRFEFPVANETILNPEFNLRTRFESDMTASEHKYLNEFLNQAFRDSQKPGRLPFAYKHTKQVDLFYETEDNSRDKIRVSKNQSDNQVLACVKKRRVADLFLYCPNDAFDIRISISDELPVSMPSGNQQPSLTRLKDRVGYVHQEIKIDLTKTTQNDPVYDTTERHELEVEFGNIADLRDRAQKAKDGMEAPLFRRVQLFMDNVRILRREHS
# Legend:
# [1] = test system: S. pombe RNA triphosphatase Pct1; conditions: ref Pei et al. 2001b; cited from earlier work
# [2] = test system: Plus3 domain of Rtf1; conditions: phosphorylated CTR peptide; pdb 4L1U; ref Wier et al. 2013; cited from earlier work
# [3] = molecular target: T1, Pct1; type: binding, S. pombe; conditions: 180-fold higher than Kd for Spt5-(801–898)
# [4] = molecular target: T2, S. pombe RNA triphosphatase Pct1 (wild …); assay: fluorescence polarisation
# [5] = molecular target: T3, S. pombe RNA triphosphatase Pct1 M100A; assay: fluorescence polarisation
# [6] = molecular target: T2, S. pombe RNA triphosphatase Pct1 (wild …); assay: fluorescence polarisation; remark: listed apart in the source
# [7] = molecular target: T4, S. pombe RNA triphosphatase Pct1 M100R; assay: fluorescence polarisation
# [8] = molecular target: T5, Pct1 M100A; assay: Fluorescence polarization binding of Spt5-; design: species or system S. pombe; conditions: Pct1 M100A versus wild-type Pct1
# [9] = molecular target: T2, S. pombe RNA triphosphatase Pct1 (wild …); assay: fluorescence polarisation; remark: listed apart in the source
# [10] = molecular target: T2, S. pombe RNA triphosphatase Pct1 (wild …); assay: crystal structure
molecule,measurement,setting,value
O=P(O)(O)OP(=O)(O)OP(=O)(O)O [tripolyphosphate],competitive inhibition,[1],high-affinity competitive inhibitor
SGSRTPPMYGSQ,binding to Rtf1 Plus3 domain in crystal,[2],bound
SGSKTPAWNSGSKTPAWNSGSK,Kd relative to the Kd of Pct1 for the longer Spt5-(801–898) ligand,[3],180 fold
SGSKTPAWNSGSKTPAWNSGSK [unphosphorylated 22-amino acid synthetic Spt5 CTD peptide SGSKTPAWNSGSKTPAWNSGSK (untagged)],Ki,[4],79 ± 9 µM
"BODIPY-FL-N(Cys)-Spt5-(801-898) (domain or fragment, S. pombe, BODIPY-FL at the N-terminus via maleimide chemistry (on the added N-terminal cysteine)) CISTADGPNVPNWAQGARTPAVANGSRTPAWNTGSRTPAWNSGSKTPAWNSGSRTPAWNSGNKTPAWNAGSRTPAWNSGNKTPAWNVGNKTPAWNSGAK",Kd,[5],1400 ± 150 nM
same,Kd,[6],680 ± 100 nM
same,Kd,[7],21.4 ± 2.4 µM
"Spt5-(801–898): purified recombinant Spt5-(801–898) protein, comprising 10 nonamer repeats, labeled at the N-terminus with BODIPY-FL (protein, BODIPY-FL at the N-terminus via maleimide chemistry (on the added N-terminal cysteine)) CISTADGPNVPNWAQGARTPAVANGSRTPAWNTGSRTPAWNSGSKTPAWNSGSRTPAWNSGNKTPAWNAGSRTPAWNSGNKTPAWNVGNKTPAWNSGAK",effect of M100A on Spt5 CTD binding,[8],twofold
fluorescein-SGSKTPAWNSGSKTPAWNSGSK [fluorescein-labeled 22-amino acid synthetic Spt5 CTD peptide SGSKTPAWNSGSKTPAWNSGSK],Kd,[9],124 ± 10 µM
"TPAWNSGSRTPAWNSGSK [18-mer Spt5-CTD peptide TPAWNSGSRTPAWNSGSK, Spt5-(845-862)]",stoichiometry N,[10],2 peptides per Pct1 homodimer
